T1: laminin peptide LAMA3_(3043–3067) (Homo sapiens (Human), UniProt Q16787)
T1 chain: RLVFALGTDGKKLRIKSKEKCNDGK

T2: laminin peptide LAMA5_(3417–3436) (Homo sapiens (Human), UniProt O15230)
T2 chain: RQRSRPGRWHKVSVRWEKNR

T3: laminin peptide LAMA4_(1408–1434) (Homo sapiens (Human), UniProt Q16363)
T3 chain: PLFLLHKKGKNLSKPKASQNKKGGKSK

T4: laminin peptide LAMA4_(1521–1543) (Homo sapiens (Human), UniProt Q16363)
T4 chain: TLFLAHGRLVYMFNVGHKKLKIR

T5: laminin peptide LAMA5_(3300–3330) (Homo sapiens (Human), UniProt O15230)
T5 chain: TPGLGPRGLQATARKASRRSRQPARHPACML

T6: laminin peptide LAMA5_(3539–3550) (Homo sapiens (Human), UniProt O15230)
T6 chain: TLPDVGLELEVR

B1: recombinant human syndecan-4 (protein)
chain: ESIRETEVIDPQDLLEGRYFSGALPDDEDVVGPGQESDDFELSGSGDLDDLEDSMIGPEVVHPLVPLDNHIPERAGSGSQVPTEPKKLEENEVIPKRISPVEESEDVSNKVSMSSTVQGSNIFERTE
B2: recombinant human syndecan-1 (protein)
chain: QIVATNLPPEDQDGSGDDSDNFSGSGAGALQDITLSQQTPSTWKDTQLLTAIPTSPEPTGLEATAASTSTLPAGEGPKEGEAVVLPEVEPGLTAREQEATPRPRETTQLPTTHLASTTTATTAQEPATSHPHRDMQPGHHETSTPAGPSQADLHTPHTEDGGPSATERAAEDGASSQLPAAEGSGEQDFTFETSGENTAVVAVEPDRRNQSPVDQGATGASQGLLDRKEVLG
B3: recombinant human syndecan-2 (protein)
chain: ESRAELTSDKDMYLDNSSIEEASGVYPIDDDDYASASGSGADEDVESPELTTSRPLPKILLTSAAPKVETTTLNIQNKIPAQTKSPEETDKEKVHLSDSERKMDPAEEDTNVYTEKHSDSLFKRTE

Columns and labels:
Assay in all cases: ELISA
[1] = target: T1, laminin peptide LAMA3_(3043–3067)
[2] = target: T2, laminin peptide LAMA5_(3417–3436)
[3] = target: T3, laminin peptide LAMA4_(1408–1434)
[4] = target: T4, laminin peptide LAMA4_(1521–1543)
[5] = target: T5, laminin peptide LAMA5_(3300–3330)
[6] = target: T6, laminin peptide LAMA5_(3539–3550)

| Binder | binding result [1] | binding result [2] | binding result [3] | binding result [4] | binding result [5] | binding result [6] |
| --- | --- | --- | --- | --- | --- | --- |
| B1 | binds | binds | binds | binds | binds | no binding |
| B2 | binds | binds | binds | binds | binds | no binding |
| B3 | binds | binds | binds | binds | binds | no binding |

Source: PMC5986797 (2018)
